Data: patent US20260317782 (published 2026)

B1: V0009 (antibody, V domains shown)
VH: EVQLVESGGALVQPGGSLSLSCAASGFTFTDYYMSWVRQPPGKALEWLALIRNKAKGFTTEYSASVKGRFTISRDNSQSILLFQMNDLRADDSATYYCVRDINYWGQGTTLTVSS
VL: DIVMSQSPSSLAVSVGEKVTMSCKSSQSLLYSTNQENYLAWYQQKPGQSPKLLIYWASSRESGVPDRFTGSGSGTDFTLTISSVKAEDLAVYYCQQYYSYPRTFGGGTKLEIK
modifications: non-phosphorylated
B2: V0024 (antibody, V domains shown)
VH: QVQLQQPGTELVKPGASVKLSCKASGYTFTRFWMHWVKQRPGQGLEWIGNINPNNGGTDNNERFKSKATLTVDRSSSTAYMQLSSLTSEDSAVYYCARGTGTGAMDYWGQGTSVTVSS
VL: DVVMTQTPLSLPVSLGDQASISCRSSQSLVHSNGNTHLYWYLQKPGQSPKLLIYRVSSRFSGVPDRFSGSGSGTDFTLKISRVEAEDLGVYFCFQGTHVPRTFGGGTKLEIK
modifications: non-phosphorylated
B3: V0004 (antibody, V domains shown)
VH: QVQLQQPGAELVKPGASVKLSCKASDYTFTNYWMHWVKQRPGRGLEWIGRIDPNSGGTRYNEKFKNKATLTVDKPSSTAYMHLSSLTSEDSAVYYCAGDFDVWGTGTTVTVSS
VL: DIQMTQSPASLSASVGETVTITCRASGNIHNYLAWYQQRQGKSPQLLVYNAKTLPDGVPSRFSGSGSGTQYSLKINSLQPEDFGSYCCQHFWSTPLTFGAGTKLELK
modifications: non-phosphorylated

These binders were tested against wild type tau (human, UniProt P10636) (assay: ELISA).
wild type tau, sequence (P10636 2-758): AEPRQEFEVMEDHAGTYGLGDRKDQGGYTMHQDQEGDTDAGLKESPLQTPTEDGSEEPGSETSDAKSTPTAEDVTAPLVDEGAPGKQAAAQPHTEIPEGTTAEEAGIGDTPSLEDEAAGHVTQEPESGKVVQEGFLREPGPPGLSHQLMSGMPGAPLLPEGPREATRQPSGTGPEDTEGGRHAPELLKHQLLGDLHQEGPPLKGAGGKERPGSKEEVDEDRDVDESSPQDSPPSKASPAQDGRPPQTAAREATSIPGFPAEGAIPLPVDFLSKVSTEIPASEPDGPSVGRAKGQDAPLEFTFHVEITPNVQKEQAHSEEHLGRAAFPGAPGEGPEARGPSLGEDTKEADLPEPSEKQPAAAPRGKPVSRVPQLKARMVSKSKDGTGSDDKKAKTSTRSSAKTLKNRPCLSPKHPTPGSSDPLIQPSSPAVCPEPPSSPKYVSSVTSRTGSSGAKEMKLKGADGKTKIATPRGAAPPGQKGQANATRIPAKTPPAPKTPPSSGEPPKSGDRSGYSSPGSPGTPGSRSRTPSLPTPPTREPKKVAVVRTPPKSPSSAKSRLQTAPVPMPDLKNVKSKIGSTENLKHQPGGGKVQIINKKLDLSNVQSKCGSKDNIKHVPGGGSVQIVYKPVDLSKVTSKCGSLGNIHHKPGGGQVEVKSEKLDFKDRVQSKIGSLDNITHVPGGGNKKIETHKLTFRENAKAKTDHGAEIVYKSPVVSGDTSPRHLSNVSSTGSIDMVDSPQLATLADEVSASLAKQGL

Binding result, no binding:
B1
B2
B3
